Literature values in US6319955A, “Use of MEK1 inhibitors as protective agents against damage due to ischemia” (priority 2000, dated 2001).

Details: compared with native tPA

B1: C84S tPA (protein, UniProt P00750 36-562, looked up, variant C84S)
Tissue-type plasminogen …: SYQVICRDEKTQMIYQQHQSWLRPVLRSNRVEYCWCNSGRAQCHSVPVKSCSEPRCFNGGTCQQALYFSDFVCQCPEGFAGKCSEIDTRATCYEDQGISYRGTWSTAESGAECTNWNSSALAQKPYSGRRPDAIRLGLGNHNYCRNPDRDSKPWCYVFKAGKYSSEFCSTPACSEGNSDCYFGNGSAYRGTHSLTESGASCLPWNSMILIGKVYTAQNPSAQALGLGKHNYCRNPDGDAKPWCHVLKNRRLTWEYCDVPSCSTCGLRQYSQPQFRIKGGLFADIASHPWQAAIFAKHRRSPGERFLCGGILISSCWILSAAHCFQERFPPHHLTVILGRTYRVVPGEEEQKFEVEKYIVHKEFDDDTYDNDIALLQLKSDSSRCAQESSVVRTVCLPPADLQLPDWTECELSGYGKHEALSPFYSERLKEAHVRLYPSSRCTSQHLLNRTVTDNMLCAGDTRSGGPQANLHDACQGDSGGPLVCLNDGRMTLVGIISWGLGCGQKDVPGVYTKVTNYLDWIRDNMRP
in vivo half life, in words: longer in vivo half life than native tPA
